The values that follow come from patent US20250002610A1 (Genmab, published 2025).

Numbering of substitutions follows the chain as printed.

Experiment [1] concerns the target T1, His-tagged recombinant Cynomolgus FAPα (Acro Biosystems, Cat #FAP-C52H3-100ug) (cynomolgus monkey, UniProt A0A2K5VGF4 26-760).
T1 construct: Bought reagent; also called recombinant cynomolgus monkey FAPα; not shown: His tag of the vendor's construct (Acro Biosystems FAP-C52H3)
T1 sequence: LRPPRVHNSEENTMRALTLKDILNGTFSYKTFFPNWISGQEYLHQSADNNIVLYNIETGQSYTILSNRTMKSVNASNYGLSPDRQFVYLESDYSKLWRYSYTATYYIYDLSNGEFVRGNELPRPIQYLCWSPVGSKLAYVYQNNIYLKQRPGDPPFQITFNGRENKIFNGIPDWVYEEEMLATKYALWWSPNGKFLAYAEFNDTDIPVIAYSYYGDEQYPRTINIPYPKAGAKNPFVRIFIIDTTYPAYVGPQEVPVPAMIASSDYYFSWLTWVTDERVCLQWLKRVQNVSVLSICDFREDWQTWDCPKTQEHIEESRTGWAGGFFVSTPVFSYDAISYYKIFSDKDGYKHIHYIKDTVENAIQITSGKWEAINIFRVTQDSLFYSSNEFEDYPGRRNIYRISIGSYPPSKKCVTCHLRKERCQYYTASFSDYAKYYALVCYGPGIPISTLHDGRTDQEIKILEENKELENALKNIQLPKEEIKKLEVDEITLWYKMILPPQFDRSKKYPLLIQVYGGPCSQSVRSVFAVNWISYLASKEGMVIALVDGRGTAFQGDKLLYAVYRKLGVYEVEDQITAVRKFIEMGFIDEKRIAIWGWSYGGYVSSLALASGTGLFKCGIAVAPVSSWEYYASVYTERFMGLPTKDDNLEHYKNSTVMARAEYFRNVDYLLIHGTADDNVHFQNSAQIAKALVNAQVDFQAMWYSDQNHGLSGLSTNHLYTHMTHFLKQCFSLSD
The experiment in a line: BLI, antigen immobilized on AR2G sensors. The method, then:
(§1) Experiments were carried out while shaking at 1,000 RPM at 30° C. Amine Reactive 2nd Generation (AR2G) biosensors (Sartorius, Cat #18-5092) were activated by reaction with 20 mM EDC (N-(3-Dimethylaminopropyl)-N′-ethylcarbodiimide hydrochloride) (Sigma-Aldrich, Cat #03449) and 10 mM s-NHS (N-hydroxysulfosuccinimide sodium salt) (Sigma-Aldrich, Cat #56485) for 300 s. The activated AR2G sensors were loaded with 2.5 μg/mL His-tagged recombinant Human FAPα (Acro Biosystems, Cat #FAP-H5244-100ug) in 10 mM Sodium Acetate pH 5.0 (Sartorius, Cat #18-1069) or 2.5 μg/mL His-tagged recombinant Cynomolgus FAPα (Acro Biosystems, Cat #FAP-C52H3-100ug) in 10 mM Sodium Acetate pH 5.0 for 600 s and quenched with 1 M ethanolamine pH 8.5 (Sartorius Cat #18-1071) for 300 s. After a baseline measurement in Sample Diluent (1000 s; Sartorius, Cat #18-1104), the association (100 s) and dissociation (4,000 s) of functionally monovalent antibody was determined using a concentration range of 0.78-800 nM with two-fold dilution steps in Sample Diluent. The molecular mass of the antibodies used for the calculations was calculated from the sequences.
(§2) The Y-axis was aligned to the last 10 s of the baseline; Interstep Correction alignment to dissociation and Savitzky-Golay filtering were applied. Data traces with a response <0.05 nm were excluded from analysis. […]
(In BLI a coated tip is dipped into the sample, and binding shifts an interference pattern.)

The target in experiment [2] is T2, His-tagged recombinant Human FAPα (Acro Biosystems, Cat #FAP-H5244-100ug) (human, UniProt Q12884 26-760).
T2 construct: Bought reagent; not shown: His tag
T2 sequence (looked up): T1 sequence with P4S, F236V, D392E
The experiment in a line: BLI, antigen immobilized on AR2G sensors. The method, then: as §1, §2

Experiment [3] deals with T3, cynomolgus monkey DR4 with death domain deletion on ExpiCHO-S cells (cynomolgus monkey (Macaca fascicularis)).
T3 construct: also called cynomolgus DR4
T3 chain: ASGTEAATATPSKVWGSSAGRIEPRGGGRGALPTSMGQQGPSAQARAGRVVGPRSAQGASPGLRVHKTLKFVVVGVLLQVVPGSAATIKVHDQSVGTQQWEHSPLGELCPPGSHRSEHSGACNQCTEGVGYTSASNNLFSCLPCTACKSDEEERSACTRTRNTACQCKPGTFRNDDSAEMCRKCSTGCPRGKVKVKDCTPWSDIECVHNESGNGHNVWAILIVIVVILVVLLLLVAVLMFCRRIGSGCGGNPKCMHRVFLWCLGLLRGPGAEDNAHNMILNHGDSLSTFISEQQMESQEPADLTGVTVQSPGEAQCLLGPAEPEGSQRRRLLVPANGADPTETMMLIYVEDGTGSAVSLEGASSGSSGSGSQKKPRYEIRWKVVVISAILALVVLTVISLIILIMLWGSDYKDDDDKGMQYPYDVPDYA
Put plainly: flow cytometry, ExpiCHO-S cells expressing cynomolgus monkey DR4, n = 3. The protocol: Binding of BisG1-FAPα-FERL/DR4-FERR, BisG1-DR4-FEAL/b12-FEAR and IgG1-DR4-FERR to DR4 of various species commonly used for nonclinical toxicology studies was assessed by flow cytometry using ExpiCHO-S cells transiently expressing DR4 from different animal species. In contrast to other species, rodents only express one DR which has highest homology with human DR5. Therefore, ExpiCHO-S cells transiently expressing rat and mouse DR protein were used instead. All DR constructs lack the intracellular DD to avoid apoptosis of transfected cells upon DR(4) activation. IgG1-b12 was used as negative control.
On the technique in general: Flow cytometry measures light scatter and fluorescence of single cells or particles in a stream.

B1: BisG1-b12-FERL/DR4-FERR (bispecific antibody, human IgG1, kappa, lambda)
heavy 1: QVQLVQSGAEVKKPGASVKVSCQASGYRFSNFVIHWVRQAPGQRFEWMGWINPYNGNKEFSAKFQDRVTFTADTSANTAYMELRSLRSADTAVYYCARVGPYSWDDSPQDNYYMDVWGKGTTVIVSSASTKGPSVFPLAPSSKSTSGGTAALGCLVKDYFPEPVTVSWNSGALTSGVHTFPAVLQSSGLYSLSSVVTVPSSSLGTQTYICNVNHKPSNTKVDKRVEPKSCDKTHTCPPCPAPEFERGPSVFLFPPKPKDTLMISRTPEVTCVVVDVSHEDPEVKFNWYVDGVEVHNAKTKPREEQYNSTYRVVSVLTVLHQDWLNGKEYKCKVSNKALPAPIEKTISKAKGQPREPQVYTLPPSREEMTKNQVSLTCLVKGFYPSDIAVEWESNGQPENNYKTTPPVLDSDGSFLLYSKLTVDKSRWQQGNVFSCSVMHEALHNHYTQKSLSLSPG
light 1: EIVLTQSPGTLSLSPGERATFSCRSSHSIRSRRVAWYQHKPGQAPRLVIHGVSNRASGISDRFSGSGSGTDFTLTITRVEPEDFALYYCQVYGASSYTFGQGTKLERKRTVAAPSVFIFPPSDEQLKSGTASVVCLLNNFYPREAKVQWKVDNALQSGNSQESVTEQDSKDSTYSLSSTLTLSKADYEKHKVYACEVTHQGLSSPVTKSFNRGEC
heavy 2: QVQLQESGPGLVKPSGTLSLTCAVSGGSISSYSWWSWIRQPPGKGLEWIGELYHSGSTNYNPSLKSRVTISVDKSKNQFSLKLRSVTAADTAVYYCVRGVATIDYWGQGTLVTVSSASTKGPSVFPLAPSSKSTSGGTAALGCLVKDYFPEPVTVSWNSGALTSGVHTFPAVLQSSGLYSLSSVVTVPSSSLGTQTYICNVNHKPSNTKVDKRVEPKSCDKTHTCPPCPAPEFERGPSVFLFPPKPKDTLMISRTPEVTCVVVDVSHEDPEVKFNWYVDGVEVHNAKTKPREEQYNSTYRVVSVLTVLHQDWLNGKEYKCKVSNKALPAPIEKTISKAKGQPREPQVYTLPPSREEMTKNQVSLTCLVKGFYPSDIAVEWESNGQPENNYKTTPPVLDSDGSFFLYSRLTVDKSRWQQGNVFSCSVMHEALHNHYTQKSLSLSPG
light 2: QSALTQPPSASGSPGQSVTISCTGTSSDVGGYNFVSWYQQDPGKAPKLLIYEVTKRPSGVPDRFSGSKSGNTASLTVSGLQAEDEADYYCSSYAGSNNVMFGGGTKLTVLGQPKAAPSVTLFPPSSEELQANKATLVCLISDFYPGAVTVAWKADSSPVKAGVETTTPSKQSNNKYAASSYLSLTPEQWKSHRSYSCQVTHEGSTVEKTVAPTECS
notes: Fab-arm exchange of IgG1-b12-FERL and IgG1-DR4-FERR; also called bsIgG1-ctrl-FERLxDR4-FERR
As for B1, the binding result in experiment [1] and in experiment [2] was “no binding (tested: 800 nM)” in each case.

B2: IgG1-DR4-FERR (antibody, V domains shown)
VH: QVQLQESGPGLVKPSGTLSLTCAVSGGSISSYSWWSWIRQPPGKGLEWIGELYHSGSTNYNPSLKSRVTISVDKSKNQFSLKLRSVTAADTAVYYCVRGVATIDYWGQGTLVTVSS
VL: QSALTQPPSASGSPGQSVTISCTGTSSDVGGYNFVSWYQQDPGKAPKLLIYEVTKRPSGVPDRFSGSKSGNTASLTVSGLQAEDEADYYCSSYAGSNNVMFGGGTKLTVLG
notes: Bivalent monoclonal IgG1 lambda
Consider B2, for which the EC50 – broadly, the concentration giving half of the maximal effect – in experiment [3] came to 1.01 µg/mL.
